From the supplement of paper PMC12042874
± gives the uncertainty stated by the source.

Assay: amyloid nucleation score (Sup35N fusion, yeast selection) (log enrichment); library NNK1; higher = more nucleation; inactive = no reads after selection
Procedure, shortened: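 Plasmid inserts were Illumina-sequenced at input and output from psi-negative yeast expressing Sup35N fused to peptides of 20 random codons. The yeast were induced with 100 μM copper sulfate for 24 hours and grown 7 days at 30°C on medium lacking adenine and uracil, and sequences with under 100 input reads were excluded. Nucleation score is the DiMSum log enrichment of output over input reads, centred on the mode score of non-aggregating sequences.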

Row | Substance | amyloid nucleation score
1 | TFGLRFVYMAHLVVWCADHR | 0.036 ± 0.33
2 | ENRYMELTFQCSARRVG | 2.81 ± 0.11
3 | LGTTDPYVYSIIMYAFLWIY | 0.386 ± 0.47
4 | LMSLVNPTRVSLFFDH | -0.11 ± 0.68
5 | PCINRFHGIGFHCRLWTVYV | 0.816 ± 0.98
6 | INFCFKCWNKVWLDNFFLSS | -0.67 ± 0.22
7 | VLTTGTYFATVYIK | inactive
8 | FRNLTVGAWRPMPGERMPIG | -0.182 ± 0.42
9 | RERSYRSGDYRCYSIMWSAL | -0.382 ± 0.23
10 | KDIEYCASMCESCPYMT | 2.86 ± 0.39
11 | ASAWGLGYEFPWSRSYSAKT | -0.209 ± 0.9
12 | FHVLG | -1.35 ± 2.7
13 | WVGFGDVKSVTVMLYAPAWT | 5.04 ± 0.094
14 | FNLRKRRA | 0.205 ± 0.38
15 | VEAESFARCDRHVHRQTIGG | 0.369 ± 0.54
16 | SMSPTDICYWCLYHSAYIRD | 1.55 ± 0.3
17 | GFNKSSSGFVSSNGDIDYWD | -1.68 ± 2.1
18 | LLSLFRYN | 0.537 ± 1.1
19 | TSACFFFRCCCLRS | 3.76 ± 0.15
20 | MVVQRLF | -0.54 ± 0.78
21 | DSLLWVMKYSMVSFYMCDYR | -0.668 ± 0.97
22 | GKISICTRISMYSQSFVWIP | -0.109 ± 0.45
23 | LILFLASV | 1.35 ± 0.27
24 | GLAWTYLRPW | 0.143 ± 0.32
25 | MISGCLRVLMRAGVKHYVFM | 0.369 ± 0.93

Row | Substance | amyloid nucleation score
26 | AVGRPPIRYRNTHSISTDSE | 0.565 ± 0.31
27 | LFEGHLTSISEPGVVDRSIR | -0.573 ± 1.7
28 | WLVHIHRTSSISYILCLDLG | inactive
29 | GNPGFELWLLSMLIGA | inactive
30 | SSCSPHLLFGLASVGV | 0.39 ± 0.53
31 | ERFVYALIEFCIETERLHTE | -0.459 ± 0.45
32 | SNLHNCLRGNGCWVIAIDVV | -0.251 ± 0.81
33 | ICSYTSIVYLFWDDLSLSTL | 1.7 ± 0.64
34 | HSIERTWPVRRPKCESKLKF | -0.91 ± 1.3
35 | GGYIDPLS | inactive
36 | SAELKDLRGKQLLAGGP | 0.53 ± 1.1
37 | SPLFPRKLQVQYKTYPYG | inactive
38 | SWSEVGWTHCMSWASHI | -1.14 ± 2.4
39 | RDVECQLVSMHKGMWKLVEE | -0.041 ± 0.28
40 | YLRRHQRNLPEQCCEAGINV | -1.37 ± 1.5
41 | TWSSGRETSCVLFWVQVSKL | -0.101 ± 0.33
42 | SRYELSIVDCLRHTTSFFVR | 0.034 ± 0.81
43 | MYYCD | -0.35 ± 0.54
44 | SERTMMSDKLSKRSLPCSLR | -0.717 ± 0.63
45 | NIVDVKPQKRETIRWLWIIF | -0.232 ± 0.2
46 | IKIRAICVCMFDSQEGLGET | 0.601 ± 0.43
47 | LCTRFWDTMYLSSGYFGFLC | 1.03 ± 0.46
48 | WIFTREQAFFSDRCLAASSK | 0.649 ± 0.76
49 | REITCR | -0.24 ± 0.26
50 | SIGPFKTYCTAAWP | -0.502 ± 0.36

Row | Substance | amyloid nucleation score
51 | CWVHQNNCADVGATGEQSHR | -0.029 ± 0.51
52 | HFVILVLFMMMSSIGMVTRA | 5.16 ± 0.054
53 | RILYSSSSAFIGIYSLFVII | 0.292 ± 0.23
54 | IGHGTHG | 0.282 ± 0.49
55 | EEWFETGCENGCNVEGNRSC | -0.117 ± 0.57
56 | LHQSVMRWLAASWCPQIKLG | 0.338 ± 0.97
57 | SHSTFAVQMRA | 8.273 ± 0.047
58 | IKAELAKCLNTACVKFFCDV | 0.715 ± 0.37
59 | YIKGDQLVVVDTYMFRVKL | -0.991 ± 2.4
60 | ERPAAYATVTTSCKKTWDL | 7.769 ± 0.06
61 | VDLLNGDWNRSLMKAKPVER | 0.17 ± 0.29
62 | PMLGGRESEEPRVGWKVGWV | 0.377 ± 0.27
63 | VGELFCGWSRRERYPVWSLV | 0.255 ± 1.4
64 | DFECILLGCFGLDLPVTGIR | 2.27 ± 0.16
65 | PSSACCGSHFLCEQEFMICY | 0.146 ± 0.71
66 | LGKQAMC | -1.34 ± 2.4
67 | NSWKNADVWCNASMHGWSGW | 0.697 ± 0.72
68 | FDSFKVRYN | -0.724 ± 0.7
69 | DPVVFDSWELLKQWISCKRC | 0.226 ± 1.6
70 | TSVLLQHGLWIGS | 0.685 ± 0.34
71 | GGFIR | -0.516 ± 1.1
72 | RSSPHSGWQPVDLKY | -1.37 ± 2.4
73 | INLLVPFQNESVLELNATEW | 0.772 ± 0.51
74 | SSSKYMIFFYRAIHHHKGME | 0.31 ± 0.33
75 | TMVFVCSNYGPSFSLLVC | 2.83 ± 0.24

Row | Substance | amyloid nucleation score
76 | YFCQWH | inactive
77 | EVIRLDSIFLETGVRSCFQY | 0.041 ± 0.73
78 | HGGKCLSMRYRDCALWTFQG | 0.031 ± 1.2
79 | WVCLNYYWGCVRRTTRVFCL | -0.198 ± 0.52
80 | WFGLTALGDTFYGLYFCKKL | -0.848 ± 0.78
81 | EGVVMRISWKNTNGHVYEKG | 2.06 ± 0.23
82 | SITVVSNEFNVVNVILCGCY | 7.009 ± 0.046
83 | NLLLIMDFVGWV | 1.48 ± 0.56
84 | YDILNGQAHDCYETMVKGWG | -0.372 ± 0.47
85 | NTCLH | 1.63 ± 0.43
86 | SPAMYPHNSRFLMYITSFMQ | 1.08 ± 0.72
87 | FKRCKRIPDPQSIGSRHFGA | 0.568 ± 0.58
88 | YSLFAGLREVSMDVCNDV | 0.39 ± 0.5
89 | RAWASVLGSFGIGVSCCGA | -0.85 ± 1.2
90 | IFTTSNQSEGRGVPAGNPNL | inactive
91 | KEIINGCRR | 5 ± 0.1
92 | SFGANYTLILTVIIQRLADQ | 6.31 ± 0.083
93 | RLMSNYHEGAAHKGGKHMPW | -0.495 ± 0.65
94 | IAPSNFRGWMAHYKV | 0.213 ± 0.57
95 | KRLTMVVRGKLSVLHP | 3.74 ± 0.12
96 | QNWMPRHLTITLNDIRLYL | 4.95 ± 0.12
97 | VYINVYHYWRFSKKYVGKLL | 0.318 ± 0.17
98 | SPRRLGAVMVSRRVGVGKGW | 0.402 ± 1.4
99 | CSSFAQ | 0.549 ± 0.31
100 | PWRAGYGRRKLLSEGDFRLS | 0.218 ± 0.62

Row | Substance | amyloid nucleation score
101 | LYNRIANFGPGYINLWVI | 6.375 ± 0.061
102 | KVTLNFRSHSLENCDAYNKY | 3.15 ± 0.12
103 | SRAWWVKEFRGVKEVIQVRF | 0.488 ± 0.56
104 | DKISWLSHQLRWDSRMSNLE | 1.1 ± 0.66
105 | TMIWLVAPPPLLAMVLY | 0.392 ± 0.6
106 | FLLLCRSFFSARTILRCTMV | 0.631 ± 0.89
107 | RRGGFG | -0.085 ± 0.69
108 | RCMFAYLRVMDCNGGNVYPV | 0.409 ± 0.21
109 | PWACSTSRSMLPSSSLPALM | 0.814 ± 0.66
110 | LWYVAPHVTRSNFEVQGGCG | -0.249 ± 0.34
111 | QRMCVYLGTLPLSLLGRMWG | 0.175 ± 1.1
112 | KYIRISVDGIRFKEWCEFGS | 0.777 ± 0.14
113 | RDPYMCSLVRAGSGSKGTI | 0.447 ± 0.56
114 | DQYIGGFGFNYETFVTRNLV | -0.861 ± 0.49
115 | SLNREYVYKRGGVREWCRYL | 0.856 ± 0.59
116 | VLESIQGCYFLGASWIAEFR | 0.409 ± 0.48
117 | NSPPSDHSLKV | -0.195 ± 1.4
118 | NISSQEPISRAATSRKVAGQ | 0.466 ± 1.4
119 | DVVEYVIWSYTWMNLAHYCR | 0.136 ± 0.24
120 | AVFLVRAPSTRGLARMVDLA | inactive
121 | NGKSAQ | 4.05 ± 0.064
122 | YQDFAGDARFGEIRWYYPKS | 0.125 ± 0.41
123 | LSSIATRKHELLNFPV | 0.294 ± 0.63
124 | HVYLTWTGLVGLKWCSGCSA | -0.856 ± 2.4
125 | VFRDVHD | 0.417 ± 0.42

Row | Substance | amyloid nucleation score
126 | NSRNVCFWYVNCCLVHGILG | 7.543 ± 0.067
127 | YLKGVG | 0.104 ± 0.74
128 | FHYLMDYSRLNDIPLEDWGW | -0.411 ± 0.73
129 | KYPSKSSELSGYEDSRNFVG | 0.806 ± 0.62
130 | ELIFFDDHFTDWYLCFNNFG | -1.29 ± 1.4
131 | ALMDKDLCLNMSGQKSLWFR | 0.073 ± 0.48
132 | KFFEFLYKFDPCRRYCRLCQ | 0.264 ± 0.36
133 | VYVKYP | -0.125 ± 0.77
134 | FATFRMSCPAKTVSVAVIGG | -0.069 ± 0.77
135 | ISWSASLDIDINCQCRGLWG | 3.35 ± 0.1
136 | FTRKEVVPMWDKEDRVCIGD | 0.02 ± 0.74
137 | AYIVNIELGNRTS | 7.04 ± 0.056
138 | SSSKLLR | -0.4 ± 0.7
139 | CHYGDPSGWGQLTPSTWTGE | 0.573 ± 0.42
140 | LWSVVYIVIYHLMSNADWST | -0.252 ± 0.41
141 | TFKSTLFSYFPGPQEHARGR | 1.93 ± 0.25
142 | DAIVDS | 0.084 ± 0.54
143 | GRYILGFE | 2.17 ± 0.17
144 | FMEVWRYWRFIVSRERFNHI | -0.207 ± 0.78
145 | SIFRTKTTFLRNVQLEWLGG | -0.211 ± 0.86
146 | LKLGYMNLLISDRCAVIERY | 0.969 ± 0.81
147 | FPRHYCTYWG | -0.157 ± 0.36
148 | SRRSYSYFGIIICVNCSDTS | 8.583 ± 0.057
149 | FLTQPFAFIVLCGSKYTSSD | -0.463 ± 0.48
150 | TFISSMPNQMIFPKGGSRGC | inactive

Row | Substance | amyloid nucleation score
151 | YSSGKELTGLLDKKFIIGLD | -0.186 ± 0.39
152 | SEYTLLTFKSFGNRAPHFVG | 1.75 ± 0.19
153 | GRLSGYEWGRKSRSPGRWTV | 0.438 ± 1.1
154 | TLDADYPCNEQDTVWL | 1.01 ± 1.1
155 | SCAYQGKLSIAAMLVSGFGC | 1.16 ± 0.97
156 | QSADLMNSMTLICGWSVQIA | 4.43 ± 0.12
157 | TRAAYLGRGREMRCIKVAFW | 1.31 ± 0.93
158 | HYRCVRGYSFFVLLCDSRIQ | -0.497 ± 0.93
159 | SQIASVINAQSSMCRFV | -0.023 ± 0.38
160 | ECSGVNLNTSYLPGVQEATM | 0.715 ± 0.2
161 | ELSYSYQSGID | 0.225 ± 0.67
162 | VGIWIGVDMGIGWGRDSVYV | 0.125 ± 0.53
163 | IDWKLKLMFMCFESKSLVNW | -0.655 ± 0.32
164 | MIVDNHWHECYSRAS | -1.76 ± 1.4
165 | PMSGVGYGRMRLSAAWPVDK | -0.604 ± 0.78
166 | RKVSANRFSYWRMGKGMYPV | 0.042 ± 0.34
167 | VRQNNGQMFFYWSWFIGNNP | 8.12 ± 0.063
168 | IGESDNG | -0.63 ± 0.56
169 | SNFVALYDRYNCFSVCIYCG | 5.78 ± 0.063
